# Measured values published in PMC7412237 (Molecules, 2020).
# Legend:
# Details in all cases: both partners purified
# [1] = biological target: human wt-PD-1 (33–150 aa, C93S mutation) (human, UniProt Q15116 33-150, C93S, RED-NHS fluorescent label (in the MST); uniformly 15N-labelled (in the NMR)); experiment: MST; PD-1 or mutant labelled with RED-NHS, kept at 20 nM; unlabelled PD-L1 diluted from 183 µM to 416 nM; 50 mM Tris-HCl pH 7.6, 150 mM NaCl, 10 mM MgCl2, 0.05% Tween-20; 2 h at RT
# (N66A)PD-1 = (N66A)PD-1 (human, UniProt Q15116 33-150, C93S | N66A, RED-NHS fluorescent label (in the MST); uniformly 15N-labelled (in the NMR)); experiment: as above
# Chain of (N66A)PD-1 (Q15116 33-150 N66A/C93S): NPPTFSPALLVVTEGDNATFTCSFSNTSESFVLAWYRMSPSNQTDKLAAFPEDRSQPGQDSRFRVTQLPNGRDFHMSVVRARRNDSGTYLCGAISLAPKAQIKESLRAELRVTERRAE
# wt-p53 (1–321 aa) = biological target: T1, wt-p53 (1–321 aa) (human, UniProt P04637 1-321); experiment: ITC; Microcal iTC200, 25 °C; 0.012–0.030 mM p53 in the cell, 0.1–0.3 mM Mdm2 or MdmX in the syringe; 20 injections; single set of sites; in duplicate
# T1 construct: p53, human, residues 1-321, cloned into pET23; also called p53-wt; source: E. coli BL21 (DE3) RIL, purified (Ni-NTA, gel filtration)
# T1 sequence (P04637 1-321): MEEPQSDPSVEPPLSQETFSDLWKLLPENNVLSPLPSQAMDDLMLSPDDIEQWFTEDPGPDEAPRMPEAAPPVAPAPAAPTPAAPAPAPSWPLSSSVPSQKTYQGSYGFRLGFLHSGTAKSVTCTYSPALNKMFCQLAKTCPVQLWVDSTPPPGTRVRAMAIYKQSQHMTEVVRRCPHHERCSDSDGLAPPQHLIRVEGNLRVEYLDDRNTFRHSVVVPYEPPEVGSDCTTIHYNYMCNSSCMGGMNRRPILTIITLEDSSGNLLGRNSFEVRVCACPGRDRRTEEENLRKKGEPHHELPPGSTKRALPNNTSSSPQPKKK
# Chain of human wt-PD-1 (33–150 aa, C93S mutation) (Q15116 33-150 C93S): as the sequence (Q15116 33-150 N66A/C93S) above, with A34N counted along it
Kd [1],Kd ((N66A)PD-1),Kd (wt-p53 (1–321 aa)),Binder
8 µM,> 100 µM,,recombinant PD-L1 (18–134 aa) (domain or fragment) AFTVTVPKDLYVVEYGSNMTIECKFPVEKQLDLAALIVYWEMEDKNIIQFVHGEEDLKVQHSSYRQRARLLKDQLSLGNAALQITDVKLQDAGVYRCMISYGGADYKRITVKVNAPY
,,0.6 ± 0.02 µM,"recombinant human Mdm2 (1–125 aa) (domain or fragment, UniProt Q00987 1-125, looked up) MCNTNMSVPTDGAVTTSQIPASEQETLVRPKPLLLKLLKSVGAQKDTYTMKEVLFYLGQYIMTKRLYDEKQQHIVYCSNDLLGDLFGVPSFSVKEHRKIYTMIYRNLVVVNQQESSDSGTSVSEN"
